Experimental data published in patent US20090324614A1.

Key:
[1] = target: rat FcRn/rat β2M expressed on cells (rat) (UniProt P13599); assay: FACS blocking of IgG-Fc, IgG, pH 6
[2] = target: soluble human FcRn (shFcRn) (human) (UniProt P55899); assay: Biacore, IgG immobilized, hFcRn flowed, pH 7.4
Chain of soluble human FcRn (shFcRn) (human) (P55899 24-297 limits assumed, chain 1 of 2): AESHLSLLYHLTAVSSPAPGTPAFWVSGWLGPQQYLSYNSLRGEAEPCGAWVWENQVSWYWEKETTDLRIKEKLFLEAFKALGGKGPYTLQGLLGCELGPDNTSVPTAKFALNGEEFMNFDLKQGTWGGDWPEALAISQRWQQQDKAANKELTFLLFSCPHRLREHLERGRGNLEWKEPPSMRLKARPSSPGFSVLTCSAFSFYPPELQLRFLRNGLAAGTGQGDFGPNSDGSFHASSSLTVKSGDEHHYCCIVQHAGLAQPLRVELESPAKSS
Chain of soluble human FcRn (shFcRn) (human) (b2m, as listed by the source limits assumed, chain 2 of 2): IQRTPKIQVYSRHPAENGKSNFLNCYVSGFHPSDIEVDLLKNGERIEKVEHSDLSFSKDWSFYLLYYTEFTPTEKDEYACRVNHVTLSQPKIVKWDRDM

Chain of rat FcRn/rat β2M expressed on cells (rat) (P13599 23-366 limits assumed, chain 1 of 2): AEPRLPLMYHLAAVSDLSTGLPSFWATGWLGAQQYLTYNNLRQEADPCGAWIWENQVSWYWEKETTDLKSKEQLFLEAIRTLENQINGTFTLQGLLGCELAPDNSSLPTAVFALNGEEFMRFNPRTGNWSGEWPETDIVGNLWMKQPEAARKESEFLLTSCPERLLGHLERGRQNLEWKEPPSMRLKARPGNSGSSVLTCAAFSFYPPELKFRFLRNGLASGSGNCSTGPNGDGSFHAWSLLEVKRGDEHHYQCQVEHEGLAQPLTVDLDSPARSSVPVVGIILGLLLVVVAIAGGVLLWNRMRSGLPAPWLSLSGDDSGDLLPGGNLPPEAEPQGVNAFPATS
Chain of rat FcRn/rat β2M expressed on cells (rat) (b2m, as listed by the source limits assumed, chain 2 of 2): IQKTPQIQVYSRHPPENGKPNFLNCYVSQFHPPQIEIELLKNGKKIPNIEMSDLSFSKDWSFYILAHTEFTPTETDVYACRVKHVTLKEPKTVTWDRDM

Row | Substance | IC50 [1] [nM] | Kd [2] [nM]
1 | 1G3 mouse anti-rat FcRn IgG (antibody) | 1.5 | –
2 | M161-B04 IgG (DX-2504) (antibody) | – | 7.06
